In US8034572B2, “Receptor for GDNF family ligands” (priority 2006, dated 2011):

What was measured:
[1] = SPR (IAsys): GFLs interaction with heparin-BSA cuvette; format: binding
Protocol: (§1) The affinities of GFLs for heparin and heparin-like molecules (e.g. syndecan-3) were determined by plasmon surface resonance using the IAsys system (Affinity Sensors, Cambridge, UK). Planar aminosilane cuvettes (Affinity Sensors) were used for protein coupling to avoid problems with mass transport, which occur frequently with matrix surfaces. In the initial approach, heparin-BSA was immobilized to the cuvette surface using the manufacturer's instructions and different ligand concentrations were used to determine association (ka) and dissociation (kdis) rates using the IAsys Fastfit software. The dissociation constant Kd was determined from the binding dynamics as […], or from equilibrium response (R) using a simple Langmuir fit: R=(Rmax*C)/(Kd+C), where C is the ligand concentration. […] The dissociation constants were determined from binding dynamics and equilibrium response. The same cuvettes were used to test binding of heparan sulfate proteoglycan syndecan-3, which was purified as an ectodomain from early postnatal rat brains by HB-GAM affinity chromatography (Raulo et al., 1994).
(§2) Binding was analyzed using IAsys cuvettes with immobilized heparin-BSA or GFLs. The dissociation constant Kd was determined from dynamics of association and dissociation (Kd=kdis/ka), or from equilibrium response R (R=(Rmax*C)/(Kd+C), where C is ligand concentration).

[2] = system: rat embryonic hippocampal neurons; test: Neurite outgrowth assay in E17 rat hippocampal neurons; format: cell-based
Protocol: Hippocampi were dissected from E17 embryonic rat brains under the microscope and transferred to the preparation media (HBBS without Ca^2+ and Mg^2+ supplemented with 1 mM sodium pyruvate (Gibco) and buffered by 10 mM Hepes pH 7.2), then partially digested by papain and triturated in the preparation media supplemented with DNase I. Cells were washed with HBBS containing Ca^2+ and Mg^2+ and transferred to the growth media (Neurobasal media with B27 supplement, 2 mM L-glutamine, 25 μM glutamic acid and penicillin and streptomycin (Gibco)). For enzymatic treatments neurons were kept in the growth media supplemented with 0.2% BSA at +37° C. for one hour. After the treatment cells in the same media were seeded on the protein-coated cover slips (see above) and after 10 min, the media was changed for B27-free media. Neurons were incubated at +37° C., 5% CO2 for 18 hours.
For immunocytochemistry neurons were washed with PBS and fixed with 4% PFA, permeabilized with 0.1% Triton X-100 and stained with rabbit polyclonal antiserum to Protein Gene Product 9.5 (Affiniti), neuron-specific Class III tubulin-βIII clone Tuj1 antibodies (BABCO) or with antibodies against the neurofilament triplet, 13AA8 (Arumäe et al., 1993). Secondary antibodies were goat anti-rabbit or anti-mouse Alexa488-conjugated (Molecular Probes).
The immunostained cultures were viewed using the ×20 objective of a Zeiss Axioplan 2 fluorescent microscope (Zeiss). Neurons with at least two times longer than cell body diameter processes were considered process-bearing. Three cover slips were used in parallel and 100 neurons per cover slip were counted. Results were derived from 3 to 5 independent experiments.

[3] = Binding of ^125I-labeled GFLs to heparin-sepharose column, step NaCl elution
Protocol: GFL iodination was performed as described (Lindahl et al., 2001). Heparin-sepharose column (Amersham Biosciences) chromatography was performed to assess GFL binding to heparin. GDNF, ARTN, NRTN and PSPN were purchased from PeproTech, Ltd. or R&D Systems, Inc. GFLs were enzymatically labeled with carrier-free [^125I]NaI (Amersham Biosciences) by the lactoperoxidase method to a specific activity of 100000-200000 cpm/ng as described elsewhere (Lindahl et al., 2001). 15000-20000 cpm of iodinated GFLs, together with 10 μg of the same unlabeled protein as a carrier, were injected into a 1 ml heparin-sepharose column (Amersham Biosciences) in phosphate buffer pH 7.2 containing 100 mM NaCl and 10 mg/ml of BSA. After washing with 5 volumes of the same buffer, iodinated GFLs were eluted from the column by step elution (2 ml) with increasing NaCl concentration. The resulting fractions were counted on Rackbeta 1214 (LKB/Wallac) scintillation counter.

Src family kinase = test: Src kinase phosphorylation assay in SHEP cells; format: cell-based, human; conditions: SHEP cells plated on immobilized protein
Protocol: SHEP cells from 10-cm plates were harvested as described above and plated on GDNF-coated 35-mm Petri dishes. Cells were allowed to sediment for 10 min at room temperature and then transferred to 37° C. for additional 15 min. Cells were lysed in the lysis buffer (TBS, 1% Triton X-100, 0.5% deoxycholic acid, 0.1% SDS, 10% glycerol, 1 mM Na3VO4, 1 mM PMSF and Complete protease inhibitor mixture). Lysates were analyzed on 10% SDS-PAGE and western blots were stained with anti-pY^418Src or anti-pp60Src antibodies (Biosource). Some cells were pretreated with heparinase III or PI-PLC.

syndecan-3 ectodomain = molecular target: T1, syndecan-3 ectodomain (Rattus norvegicus, UniProt P33671); test: SPR (IAsys): syndecan-3 ectodomain interaction with GFLs cuvette; format: binding; conditions: syndecan-3 ectodomain in solution
T1 construct: purified as an ectodomain from early postnatal rat brains; from tissue; host or cells: early postnatal rat brain
Protocol: as §1, §2

[4] = SPR (IAsys): heparin interaction with GFLs cuvette; format: binding; conditions: GFLs cuvette
Protocol: as §1, §2

T1 sequence (P33671 45-387 limits assumed): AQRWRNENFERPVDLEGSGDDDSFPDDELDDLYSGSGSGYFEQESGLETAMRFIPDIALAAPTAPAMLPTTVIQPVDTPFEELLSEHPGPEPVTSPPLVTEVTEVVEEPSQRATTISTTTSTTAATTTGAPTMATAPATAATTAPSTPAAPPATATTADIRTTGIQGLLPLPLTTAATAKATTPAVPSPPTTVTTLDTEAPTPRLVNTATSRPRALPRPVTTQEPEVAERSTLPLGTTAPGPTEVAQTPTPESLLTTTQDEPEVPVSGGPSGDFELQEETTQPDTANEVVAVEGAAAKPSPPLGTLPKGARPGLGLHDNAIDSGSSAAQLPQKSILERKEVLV

B1: GDNF: Glial cell line-derived neurotrophic factor, secreted growth factor, GDNF family ligand (protein)
chain: SPDKQMAVLPRRERNRQAAAANPENSRGKGRRGQRGKNRGCVLTAIHLNVTDLGLGYETKEELIFRYCSGSCDAAETTYDKILKNLSRNRRLVSDKVGQACCRPIAFDDDLSFLDDNLVYHILRKHSAKRCGCI
ka (×10^−5) (M^−1s^−1) ([1]; GFL in solution): 3.7 (×10^−5) M^−1s^−1 | kdis ([1]; GFL in solution): 0.017 s⁻¹ | Kd = kdis/ka ([1]; from dynamics): 47.3 ± 9.9 nM | Kd ([1]; from equilibrium response): 51.3 ± 3.6 nM | neurite outgrowth on immobilized protein ([2]; E17 rat hippocampal neurons, 18 hours): stimulated neurite outgrowth | neurite outgrowth with soluble protein ([2]; soluble GDNF added to neurons grown on BSA-matrix): failed to induce neurites | NaCl concentration at elution from heparin-sepharose column ([3]; ^125I-GFLs, step NaCl gradient): 0.75 to 1 M | binding to heparin-sepharose column ([3]; ^125I-labeled GFLs): bind strongly to heparin | activation of Src family kinases (pY^418Src Western blot) (Src family kinase): induces HSPG-dependent activation of Src family kinases | ka (×10^−5) (M^−1s^−1) (syndecan-3 ectodomain): 13 ± 2 (×10^−5) M^−1s^−1 | ka (×10^−5) (M^−1s^−1) ([4]; heparin in solution): 15 (×10^−5) M^−1s^−1 | kdis ([4]; heparin in solution): 0.034 s⁻¹ | Kd = kdis/ka ([4]; from dynamics): 22.7 ± 2.7 nM | Kd ([4]; from equilibrium response, read-out: Kd (equilibrium)): 12.3 ± 3.4 nM
